Laboratory results taken from patent US20200123214A1 (published 2020).
One block for each molecule: values may come before it.

How the values were obtained:
[1] = molecular target: T1, recombinant human CSF1 protein (human) (UniProt P09603); test: SPR, BioRad ProteOn XPR 360
T1 sequence (looked up): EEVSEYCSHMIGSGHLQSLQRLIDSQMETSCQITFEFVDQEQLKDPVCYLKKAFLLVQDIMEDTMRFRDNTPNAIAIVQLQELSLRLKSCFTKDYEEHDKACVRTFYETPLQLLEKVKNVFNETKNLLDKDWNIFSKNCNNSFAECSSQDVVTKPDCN

[2] = molecular target: T2, murine CD40 overexpressed on CHO-K1 cells (CHOK1/CD40) (murine, UniProt P27512 20-289); test: flow cytometry on CHOK1/CD40 cells
T2 construct: whole, on cells; also called mCD40
T2 sequence (looked up): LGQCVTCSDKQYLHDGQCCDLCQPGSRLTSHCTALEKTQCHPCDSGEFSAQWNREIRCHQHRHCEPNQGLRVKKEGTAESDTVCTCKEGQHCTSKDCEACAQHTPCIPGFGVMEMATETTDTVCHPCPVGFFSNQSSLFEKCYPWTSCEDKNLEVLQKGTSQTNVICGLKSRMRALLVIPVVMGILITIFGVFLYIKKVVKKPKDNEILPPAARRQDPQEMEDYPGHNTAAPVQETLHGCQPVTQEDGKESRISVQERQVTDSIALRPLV
Description: For cell binding assays, immortalized cell lines were engineered to stably express CD40 (CHOK1/CD40). Increasing concentrations of the murine CSF1R-Fc-CD40L chimeric protein were incubated with the over-expressing (CHOK1/CD40) cell line for 2 hours. Cells were collected, washed, and stained with antibodies for the detection of chimeric protein binding by flow cytometry.
As a negative control, there was no detectable binding to the parental (non-CD40 expressing) CHOK1 cell line.

Kd [1]: 0.275 nM
koff [1]: 0.000335 s⁻¹
kon [1]: 1.22e+06 M⁻¹ s⁻¹
Molecule: CSF1R-Fc (Fc fusion)

EC50 [2]: 91.1 nM
B1: murine CSF1R-Fc-CD40L chimeric protein (Fc fusion, UniProt P09581 20-515, looked up)
chain: APVIEPSGPELVVEPGETVTLRCVSNGSVEWDGPISPYWTLDPESPGSTLTTRNATFKNTGTYRCTELEDPMAGSTTIHLYVKDPAHSWNLLAQEVTVVEGQEAVLPCLITDPALKDSVSLMREGGRQVLRKTVYFFSPWRGFIIRKAKVLDSNTYVCKTMVNGRESTSTGIWLKVNRVHPEPPQIKLEPSKLVRIRGEAAQIVCSATNAEVGFNVILKRGDTKLEIPLNSDFQDNYYKKVRALSLNAVDFQDAGIYSCVASNDVGTRTATMNFQVVESAYLNLTSEQSLLQEVSVGDSLILTVHADAYPSIQHYNWTYLGPFFEDQRKLEFITQRAIYRYTFKLFLNRVKASEAGQYFLMAQNKAGWNNLTFELTLRYPPEVSVTWMPVNGSDVLFCDVSGYPQPSVTWMECRGHTDRCDEAQALQVWNDTHPEVLSQKPFDKVIIQSQLPIGTLKHNMTYFCKTHNSVGNSSQYFRAVSLGQSKQLPDESLFTPHRRLDKVEEEVNLHEDFVFIKKLKRCNKGEGSLSLLNCEEMRRQFEDLVKDITLNKEEKKENSFEMQRGDEDPQIAAHVVSEANSNAASVLQWAKKGYYTMKSNLVMLENGKQLTVKREGLYYVYTQVTFCSNREPSSQRPFIVGLWLKPSSGSERILLKAANTHSSSQLCEQQSVHLGGVFELQAGASVFVNVTEASQVIHRVGFSSFGLLKL
notes: constructed 'as described above in the Detailed Description and in U.S. 62/464,002'; also called mCSF1R-Fc-CD40L; mCD115-Fc-CD40L; not shown: Fc linker of the murine chimera
